Assay results from US20230181772A1 (CITY OF HOPE, published 2023).

T1: human prostate stem cell antigen (PSCA) on the cell surface (human, UniProt O43653 12-83)
T1 construct: Expressed on transduced cell lines (22Rv1-hPSCA, RM9-hPSCA, KPC-hPSCA) or endogenously on Capan-1; also called hPSCA; 22Rv1-PSCA
T1 sequence: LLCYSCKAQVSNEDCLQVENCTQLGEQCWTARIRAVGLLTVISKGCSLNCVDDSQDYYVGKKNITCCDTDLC

T2: recombinant human PSCA-mouseFc fusion protein (human, UniProt O43653 12-83, limits assumed)
T2 construct: also called hPSCA-mFc; Recombinant human PSCA mouse Fc fusion protein (UCLA); not shown: mouse Fc
T2 sequence: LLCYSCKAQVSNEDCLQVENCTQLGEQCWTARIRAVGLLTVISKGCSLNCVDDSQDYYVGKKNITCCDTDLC

B1: A2scFv-Fc2 (Fc fusion)
chain: EVQLVESGGGLVQPGGSLRLSCAASGFNIKDYYIHWVRQAPGKGLEWVAWIDPEYGDSEFVPKFQGRATMSADTSKNTAYLQMNSLRAEDTAVYYCKTGGFWGRGTLVTVSSGGGGSGGGGSGGSAQDIQLTQSPSSLSASVGDRVTITCSASSSVRFIHWYQQKPGKAPKRLIYDTSKLASGVPSRFSGSGSGTDFTLTISSLQPEDFATYYCQQWGSSPFTFGQGTKVEIKVECPPCPAPPVAGPSVFLFPPKPKDTLMISRTPEVTCVVVDVSHEDPEVQFNWYVDGMEVHNAKTKPREEQFNSTFRVVSVLTVVHQDWLNGKEYKCKVSNKGLPAPIEKTISKTKGQPREPQVYTLPPSREEMTKNQVSLTCLVKGFYPSDIAVEWESNGQPENNYKTTPPMLDSDGSFFLYSKLTVDKSRWQQGNVFSCSVMHEALHNHYTQKSLSLSPGK
notes: Homodimer of two scFv-Fc peptides: anti-PSCA A2 VH-VL scFv with a (G4S)2-GGSAQ linker, truncated human IgG2 hinge and Fc; Made in FreeStyle 293-F cells, glycosylated at Asn-297; also called anti-PSCA scFv-Fc2
B2: A2scFv-Fc2DM (Fc fusion)
chain: EVQLVESGGGLVQPGGSLRLSCAASGFNIKDYYIHWVRQAPGKGLEWVAWIDPEYGDSEFVPKFQGRATMSADTSKNTAYLQMNSLRAEDTAVYYCKTGGFWGRGTLVTVSSGGGGSGGGGSGGSAQDIQLTQSPSSLSASVGDRVTITCSASSSVRFIHWYQQKPGKAPKRLIYDTSKLASGVPSRFSGSGSGTDFTLTISSLQPEDFATYYCQQWGSSPFTFGQGTKVEIKVECPPCPAPPVAGPSVFLFPPKPKDTLMISRTPEVTCVVVDVSHEDPEVQFNWYVDGMEVHNAKTKPREEQFNSTFRVVSVLTVVAQDWLNGKEYKCKVSNKGLPAPIEKTISKTKGQPREPQVYTLPPSREEMTKNQVSLTCLVKGFYPSDIAVEWESNGQPENNYKTTPPMLDSDGSFFLYSKLTVDKSRWQQGNVFSCSVMHEALHNQYTQKSLSLSPGK
notes: Homodimer; also called A2scFv-FcDM; double mutant

How the values were obtained:
BSA = target: T3, BSA (UniProt P02769 25-607); assay: ELISA, control wells blocked with BSA
T3 construct: Negative control coating in the ELISA; also called BSA coated wells
T3 sequence (P02769 25-607 limits assumed): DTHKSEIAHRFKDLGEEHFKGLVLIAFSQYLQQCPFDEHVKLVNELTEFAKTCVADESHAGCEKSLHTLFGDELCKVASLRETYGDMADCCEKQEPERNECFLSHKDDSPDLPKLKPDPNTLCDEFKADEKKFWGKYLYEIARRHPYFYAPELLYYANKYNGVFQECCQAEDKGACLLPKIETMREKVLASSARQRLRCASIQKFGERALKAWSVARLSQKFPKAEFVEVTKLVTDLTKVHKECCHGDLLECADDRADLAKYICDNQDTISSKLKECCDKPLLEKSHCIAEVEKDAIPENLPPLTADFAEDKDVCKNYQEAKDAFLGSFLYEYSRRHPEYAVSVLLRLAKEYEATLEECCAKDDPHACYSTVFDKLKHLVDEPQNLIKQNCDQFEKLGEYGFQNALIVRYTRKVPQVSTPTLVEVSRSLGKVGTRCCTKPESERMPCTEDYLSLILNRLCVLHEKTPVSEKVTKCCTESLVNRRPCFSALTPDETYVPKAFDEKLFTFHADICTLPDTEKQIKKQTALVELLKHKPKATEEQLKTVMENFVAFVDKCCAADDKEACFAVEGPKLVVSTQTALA
Protocol: For further confirmation of specific antigen binding ELISA was used to detect binding of A2scFv-Fc2 and A2scFv-Fc2DM to immobilized antigen hPSCA-mFc (FIG. 5). Different concentrations of hPSCA-mFc were coated (1, 3 and 5 μg/mL in PBS, 100 μL/well) overnight, control wells were blocked with BSA. Presence of immobilized antigen was detected using goat anti-mouseFc-AP. […] No nonspecific binding to BSA coated wells was detected.

[1] = target: T1, human prostate stem cell antigen (PSCA) …; assay: flow cytometry titration on PSCA-expressing cells, apparent on-cell affinity (half-maximal binding)
Protocol: The capability of the anti-PSCA antibody fragments to bind to PSCA expressed on the cell surface was analyzed by flow cytometry. Antigen specificity was confirmed using PSCA-positive and negative cell lines. In this assay binding was only seen with 22Rv1-PSCA cells but not with 22Rv1 (FIG. 9A). […] Binding to murine cell lines transduced to express human PSCA and the human pancreatic cancer cell line Capan-1 was also confirmed using the A2scFv-Fc2 (FIG. 9C).

[2] = target: T2, recombinant human PSCA-mouseFc fusion …; assay: saturation binding ELISA on immobilized hPSCA-mFc (1 ug/mL), half-maximal binding, one-site specific binding fit, 3 experiments
Protocol: Western Blot was also used to test antigen specificity. Recombinant human PSCA mouse Fc fusion protein (UCLA) was blotted and anti-PSCA scFv-Fc variants were tested for binding. Specificity and affinity of antigen binding was further evaluated by performing saturation binding on immobilized antigen in ELISA. Specific binding was fitted using the “one site-specific binding” equation to determine the Kd (ligand concentration that binds half the antigen sites at equilibrium) and Bmax (maximum number of binding sites).
Saturation binding of the anti-PSCA scFv-Fc fragments was tested in ELISA in 3 independent experiments with duplicates. Binding of serial dilutions (1 μM-[…]) of A2scFv-Fc2 and A2scFv-Fc2DM to immobilized recombinant hPSCA-m Fc (1 μg/mL) was specific and dose-dependent (FIG. 6).

Binder	binding result (BSA)	Kd [1] [nM]	Kd [2] [nM]
B1	no binding	1.2	0.5
B2	no binding	0.65	0.8
